Patent publication US20220356255A1 (CENTESSA PHARMACEUTICALS UK, published 2022)
Residue numbers refer to the chain shown, from its start.

B1: 8B06 mAb (antibody, V domains shown)
VH: QVQLVQSGGGVVQPGRSLRLSCAASGFTFSSYGMYWVRQAPGKGLEWVAVISYDGSNKYYADSVKGRFTISRDNSKNTLNLQMNSLRAEDTAVYYCAKGALTHWGVVIGDGMDVWGQGTTVTVSS
VL: NFMLTQPHSVSESPGKTVTISCRETELSRRLHYVRWYQQRPGSSPTTVIYEDDQRPSGVPDRFSGSIDSSSNSASLTISGLKTEDEADYYCQSFDSTNPWVFGGGTKLTVL
notes: Formatted into an IgG1; also called 8B06 IgG1
B2: 8D06 mAb (antibody, V domains shown)
VH: B1 VH
VL: B1 VL with R23V, E24L, T25S, E26P, L27R, S28T, R29H, R30A, L31G, V34Y
notes: Formatted into an IgG1; also called 8D06 IgG1
B3: 8G08 mAb (antibody, V domains shown)
VH: B1 VH
VL: B1 VL with R23I, E24S, T25N, E26D, L27V, S28P, R29A, R30S, L31G, V34H
notes: Formatted into an IgG1; also called 8G08 IgG1
B4: 8A04 mAb (antibody, V domains shown)
VH: B1 VH
VL: B1 VL with R23M, E24R, E26G, L27T, S28G, R29N, R30K, L31G, V34T
notes: Formatted into an IgG1; also called 8A04 IgG1
B5: 8D04 mAb (antibody, V domains shown)
VH: B1 VH
VL: B1 VL with E24G, E26G, L27S, R29F, R30H, L31H, H32K
notes: Formatted into an IgG1; also called 8D04 IgG1
B6: Fab 8B06 (Fab, V domains shown)
VH: B1 VH
VL: B1 VL
notes: Purified Fab prepared from IgG with the Pierce kit; also called 8B06 Fab
B7: Fab 8A04 (Fab, V domains shown)
VH: B1 VH
VL: B1 VL with R23M, E24R, E26G, L27T, S28G, R29N, R30K, L31G, V34T
notes: Purified Fab prepared from IgG with the Pierce kit; also called 8A04 Fab
B8: Fab 8G08 (Fab, V domains shown)
VH: B1 VH
VL: B1 VL with R23I, E24S, T25N, E26D, L27V, S28P, R29A, R30S, L31G, V34H
notes: Purified Fab prepared from IgG with the Pierce kit; also called 8G08 Fab
B9: Fab 8D04 (Fab, V domains shown)
VH: B1 VH
VL: B1 VL with E24G, E26G, L27S, R29F, R30H, L31H, H32K
notes: Purified Fab prepared from IgG with the Pierce kit; also called 8D04 Fab

Target: T1, human PD-L1 on cells (human, UniProt Q9NZQ7 19-290)
T1 construct: Endogenous on MDA-MB-231 cells or transfected into HEK293FF cells (Sino Biological plasmid); the assay field says which; also called native PD-L1 on MDA-MB-231 cells; PD-L1 expressing MDA-MB-231 cells
T1 sequence (Q9NZQ7 19-290 limits assumed): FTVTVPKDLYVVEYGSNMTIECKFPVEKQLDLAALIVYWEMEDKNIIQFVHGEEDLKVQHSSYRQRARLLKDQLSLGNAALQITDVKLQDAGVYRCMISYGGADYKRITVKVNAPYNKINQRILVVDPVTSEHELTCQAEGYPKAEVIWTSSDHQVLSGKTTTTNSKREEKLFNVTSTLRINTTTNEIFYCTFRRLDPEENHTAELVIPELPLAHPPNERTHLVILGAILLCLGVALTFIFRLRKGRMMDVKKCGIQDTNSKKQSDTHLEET
Assay: flow cytometry on MDA-MB-231 cells, pH 6

Q: Which EC50 does the source give for B1 here?
A: 0.14 nM

Q: B2 was tested. Which EC50 did it give?
A: 0.11 nM

Q: For B3, which EC50 is on record?
A: 0.08 nM

Q: For B4, which EC50 is on record?
A: 0.09 nM

Q: B5 was tested. Which EC50 did it give?
A: 0.11 nM

Target: T2, human PD-L1-Fc protein (human, UniProt Q9NZQ7 19-239)
T2 construct: Bought from R&D Systems; also called immobilised PD-L1-Fc; not shown: Fc part of the bought fusion protein, not described
T2 sequence (Q9NZQ7 19-239 limits assumed): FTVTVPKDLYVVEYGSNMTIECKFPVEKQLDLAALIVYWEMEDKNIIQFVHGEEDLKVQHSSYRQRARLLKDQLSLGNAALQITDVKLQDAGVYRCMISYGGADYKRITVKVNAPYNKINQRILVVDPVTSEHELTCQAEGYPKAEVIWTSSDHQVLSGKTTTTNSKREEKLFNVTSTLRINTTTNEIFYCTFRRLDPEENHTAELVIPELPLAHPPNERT
Assay: ELISA, Fab on coated human PD-L1-Fc, pH 6

Q: Which EC50 does the source give for B6 here?
A: 0.31 nM

Q: How did the EC50 turn out when B7 was run?
A: 0.54 nM

Q: How did the EC50 turn out when B8 was run?
A: 0.1 nM

Q: How did the EC50 turn out when B9 was run?
A: 2.63 nM

Target: T1, human PD-L1 on cells
Assay: flow cytometry on MDA-MB-231 cells, pH 6.5

Q: Which EC50 does the source give for B1 here?
A: 0.17 nM

Q: With B2 as the binder, how does the EC50 read?
A: 0.11 nM

Q: With B3 as the binder, how does the EC50 read?
A: 0.07 nM

Q: For B4, which EC50 is on record?
A: 0.11 nM

Q: With B5 as the binder, how does the EC50 read?
A: 0.13 nM

Target: T1, human PD-L1 on cells
Assay: flow cytometry on MDA-MB-231 cells, pH 7.4

Q: With B1 as the binder, how does the EC50 read?
A: 0.12 nM

Q: For B2, which EC50 is on record?
A: 0.08 nM

Q: How did the EC50 turn out when B3 was run?
A: 0.09 nM

Q: B4 was tested. Which EC50 did it give?
A: 0.09 nM

Q: With B5 as the binder, how does the EC50 read?
A: 0.1 nM

Target: T2, human PD-L1-Fc protein
Assay: ELISA, Fab on coated human PD-L1-Fc, pH 7.4

Q: With B6 as the binder, how does the EC50 read?
A: > 100 nM

Q: For B7, which EC50 is on record?
A: > 10 nM

Q: B8 was tested. Which EC50 did it give?
A: > 100 nM

Q: How did the EC50 turn out when B9 was run?
A: > 100 nM

Target: T1, human PD-L1 on cells
Assay: flow cytometry on MDA-MB-231 cells, Krebs buffer, pH 6
Protocol: (§1) Anti-PD-L1 affinity matured Fabs were tested for their ability to bind to native PD-L1 in a cell line, (MDA-MB-231 cells) in a buffer resembling the tumor microenvironment (Krebs-lactate).

Q: Which EC50 does the source give for B6 here?
A: 2 nM

Q: With B7 as the binder, how does the EC50 read?
A: 2.16 nM

Q: How did the EC50 turn out when B8 was run?
A: 1.58 nM

Q: For B9, which EC50 is on record?
A: 13.5 nM

Target: T2, human PD-L1-Fc protein
Assay: ELISA, purified Fab on coated human PD-L1-Fc, pH 6 (FIG. 4)

Q: With B6 as the binder, how does the “concentration at saturation of binding” value read?
A: 4 nM

Q: For B7, which “concentration at saturation of binding” value is on record?
A: 4 nM

Q: With B8 as the binder, how does the “concentration at saturation of binding” value read?
A: 4 nM

Q: Which “concentration at saturation of binding” value does the source give for B9 here?
A: 4 nM

Target: T1, human PD-L1 on cells
Assay: flow cytometry on MDA-MB-231 cells, Krebs buffer, pH 6.5
Protocol: as §1

Q: How did the EC50 turn out when B6 was run?
A: 6.4 nM

Q: For B7, which EC50 is on record?
A: 6.62 nM

Q: B8 was tested. Which EC50 did it give?
A: 2.95 nM

Q: With B9 as the binder, how does the EC50 read?
A: 56.4 nM

Target: T1, human PD-L1 on cells
Assay: flow cytometry on MDA-MB-231 cells, Krebs buffer, pH 7.4
Protocol: as §1

Q: B6 was tested. Which EC50 did it give?
A: > 100 nM

Q: Which EC50 does the source give for B7 here?
A: > 100 nM

Q: How did the EC50 turn out when B8 was run?
A: 13.2 nM

Q: With B9 as the binder, how does the EC50 read?
A: > 100 nM

Target: T3, biotinylated human PD-L1 (human, UniProt Q9NZQ7 19-239, limits assumed, biotinylated (sites not given))
T3 construct: Bought from R&D Systems; also called biotinylated-PD-L1; human PD-L1 biotin
T3 sequence (Q9NZQ7 19-239 limits assumed): as above
Assay: competition ELISA, Fab with biotinylated PD-L1 on coated PD-1-Fc

Q: With B6 as the binder, how does the “fold less inhibitory activity at pH 6.5 than at pH 6” value (“fold less inhibitory activity” below) read?
A: ~3 fold

Q: How did the “fold less inhibitory activity” value turn out when B7 was run?
A: ~3 fold

Q: For B8, which “fold less inhibitory activity” value is on record?
A: ~3 fold

Q: With B9 as the binder, how does the “fold less potent than Fabs 8D06, 8A04, 8G08 and 8B06” value read?
A: ~3 fold

Target: T2, human PD-L1-Fc protein
Assay: BIAcore off rate, unpurified periplasmic extract Fab on PD-L1

Q: For B6, which “Ratio pH 6 vs 7.4” value is on record?
A: 13

Q: How did the “Ratio pH 6 vs 7.4” value turn out when B7 was run?
A: 9

Q: How did the “Ratio pH 6 vs 7.4” value turn out when B8 was run?
A: 27

Q: With B9 as the binder, how does the “Ratio pH 6 vs 7.4” value read?
A: 10

Target: T3, biotinylated human PD-L1
Assay: competition ELISA, Fab with biotinylated PD-L1 on coated PD-1-Fc, pH 6

Q: For B6, which “fold less (IC50) than the control Fab 2.7A04OPT at pH 6” value is on record?
A: ~3 fold

Q: For B7, which “fold less (IC50) than the control Fab 2.7A04OPT at pH 6” value is on record?
A: ~3 fold

Q: How did the “fold less (IC50) than the control Fab 2.7A04OPT at pH 6” value turn out when B8 was run?
A: ~3 fold

Target: T2, human PD-L1-Fc protein
Assay: BIAcore off rate, unpurified periplasmic extract Fab on PD-L1, pH 6

Q: With B6 as the binder, how does the koff read?
A: 0.00135 s⁻¹

Q: With B7 as the binder, how does the koff read?
A: 0.00131 s⁻¹

Q: Which koff does the source give for B8 here?
A: 0.000823 s⁻¹

Q: With B9 as the binder, how does the koff read?
A: 0.00283 s⁻¹

Target: T2, human PD-L1-Fc protein
Assay: BIAcore off rate, unpurified periplasmic extract Fab on PD-L1, pH 7.4

Q: How did the koff turn out when B6 was run?
A: 0.0105 s⁻¹

Q: For B7, which koff is on record?
A: 0.015 s⁻¹

Q: How did the koff turn out when B8 was run?
A: 0.00308 s⁻¹

Q: With B9 as the binder, how does the koff read?
A: 0.0275 s⁻¹

Target: T3, biotinylated human PD-L1
Assay: competition ELISA, Fab with biotinylated PD-L1 on coated PD-1-Fc, pH 6
Remark: another data set of the same source

Q: B6 was tested. Which IC50 did it give?
A: 15.7 nM

Q: Which IC50 does the source give for B7 here?
A: 12.2 nM

Q: For B8, which IC50 is on record?
A: 12.1 nM

Q: B9 was tested. Which IC50 did it give?
A: 42.3 nM

Target: T1, human PD-L1 on cells
Assay: flow cytometry on MDA-MB-231 cells, Krebs buffer; ratio of EC50 values
Protocol: as §1

Q: How did the “Ratio pH 6:7.4” value turn out when B6 was run?
A: > 50

Q: How did the “Ratio pH 6:7.4” value turn out when B7 was run?
A: > 46.3

Q: With B8 as the binder, how does the “Ratio pH 6:7.4” value read?
A: 8.35

Q: Which “Ratio pH 6:7.4” value does the source give for B9 here?
A: > 7.41

Target: T1, human PD-L1 on cells
Assay: flow cytometry on MDA-MB-231 cells, Krebs-lactate buffer, pH 6 versus pH 7.4
Protocol: In order to mimic an acidic tumor environment milieu with tumor cells expressing PD-L1 (The metabolism of tumors in the body, Warburg et al. J Gen Physiol. 1927; 8:519-30) the following buffers were utilised: Krebs ringer bicarbonate buffer (KRB, Amsbio catalog number KRB-1000) with 1 mM lactic acid (Sigma catalog number 252476-50DG) for pH 7.4; KRB plus 15 mM lactic acid for pH 6.5 and KRB plus 20 mM lactic acid for pH 6.0). 3 fold dilutions (100 nM to 0.0005 nM; 0) of the Fabs or IgG were prepared in the respective pH buffers and incubated with 0.60E05 MDA-MB-231 cells for 60 minutes at 4° C. The cells were then washed 3× with the respective pH buffers, at 300 g for 3 min. The cells were then incubated with 50 μl of anti-human IgG (Fab specific)-FITC (Sigma, catalog number F5512-1ML) at 1:100 dilution in the respective pH buffers. Binding of the IgG or Fab to PD-L1 expressing cells was measured by FACS (Attune Nxt) and a total of 10.000 cells were acquired per sample.
as §1

Q: Which “pH binding preference (fold)” value does the source give for B6 here?
A: > 100 fold

Q: For B7, which “pH binding preference (fold)” value is on record?
A: > 100 fold

Q: B9 was tested. Which “pH binding preference (fold)” value did it give?
A: > 100 fold

Target: T3, biotinylated human PD-L1
Assay: competition ELISA, Fab with biotinylated PD-L1 on coated PD-1-Fc, pH 6.5

Q: For B6, which IC50 is on record?
A: 52.7 nM

Q: B7 was tested. Which IC50 did it give?
A: 29.4 nM

Q: How did the IC50 turn out when B8 was run?
A: 41.6 nM

Q: With B9 as the binder, how does the IC50 read?
A: > 100 nM

Target: T3, biotinylated human PD-L1
Assay: competition ELISA, Fab with biotinylated PD-L1 on coated PD-1-Fc, pH 7.4

Q: With B6 as the binder, how does the IC50 read?
A: > 100 nM

Q: For B7, which IC50 is on record?
A: 81.2 nM

Q: B8 was tested. Which IC50 did it give?
A: > 100 nM

Q: How did the IC50 turn out when B9 was run?
A: > 100 nM

Target: T3, biotinylated human PD-L1
Assay: competition ELISA, Fab with biotinylated PD-L1 on coated PD-1-Fc; ratio of IC50 values

Q: B6 was tested. Which “Ratio pH 6:7.4” value did it give?
A: > 6.37

Q: For B7, which “Ratio pH 6:7.4” value is on record?
A: 6.66

Q: B8 was tested. Which “Ratio pH 6:7.4” value did it give?
A: > 8.26

Q: How did the “Ratio pH 6:7.4” value turn out when B9 was run?
A: > 2.36

Target: T2, human PD-L1-Fc protein
Assay: ELISA, Fab on coated human PD-L1-Fc; ratio from extrapolating an OD of 0.3 at pH 6 versus pH 7.4

Q: Which “Ratio pH 6:7.4” value does the source give for B6 here?
A: 38

Q: Which “Ratio pH 6:7.4” value does the source give for B7 here?
A: 11

Q: How did the “Ratio pH 6:7.4” value turn out when B8 was run?
A: 53

Q: How did the “Ratio pH 6:7.4” value turn out when B9 was run?
A: 9
